The target in assay [1] is T1, ATF2 (UniProt P15336 1-505, limits assumed).
T1 construct: Tested by co-immunoprecipitation with IRF1; no association
T1 sequence (looked up): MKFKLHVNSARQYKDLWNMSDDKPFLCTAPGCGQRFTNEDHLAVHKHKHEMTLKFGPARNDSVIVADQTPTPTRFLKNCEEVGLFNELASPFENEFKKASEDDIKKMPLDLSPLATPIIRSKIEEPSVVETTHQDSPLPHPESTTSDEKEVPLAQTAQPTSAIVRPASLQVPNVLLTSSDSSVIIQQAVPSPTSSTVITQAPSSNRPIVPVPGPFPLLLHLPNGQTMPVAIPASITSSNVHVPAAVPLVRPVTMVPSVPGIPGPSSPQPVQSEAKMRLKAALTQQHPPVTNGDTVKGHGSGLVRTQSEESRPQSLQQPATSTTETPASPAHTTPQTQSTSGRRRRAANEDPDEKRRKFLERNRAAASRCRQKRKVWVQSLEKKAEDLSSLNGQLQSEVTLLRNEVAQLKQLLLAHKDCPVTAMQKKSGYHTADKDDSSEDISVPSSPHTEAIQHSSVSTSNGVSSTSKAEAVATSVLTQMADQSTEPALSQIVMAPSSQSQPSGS
The assay is described as follows: co-immunoprecipitation from cell lysates, blot probed with anti-IRF1.

Assay [2] addresses T2, HAT1 (UniProt O14929 2-419, limits assumed).
T2 construct: Tested by co-immunoprecipitation with IRF1; no association
T2 sequence (looked up): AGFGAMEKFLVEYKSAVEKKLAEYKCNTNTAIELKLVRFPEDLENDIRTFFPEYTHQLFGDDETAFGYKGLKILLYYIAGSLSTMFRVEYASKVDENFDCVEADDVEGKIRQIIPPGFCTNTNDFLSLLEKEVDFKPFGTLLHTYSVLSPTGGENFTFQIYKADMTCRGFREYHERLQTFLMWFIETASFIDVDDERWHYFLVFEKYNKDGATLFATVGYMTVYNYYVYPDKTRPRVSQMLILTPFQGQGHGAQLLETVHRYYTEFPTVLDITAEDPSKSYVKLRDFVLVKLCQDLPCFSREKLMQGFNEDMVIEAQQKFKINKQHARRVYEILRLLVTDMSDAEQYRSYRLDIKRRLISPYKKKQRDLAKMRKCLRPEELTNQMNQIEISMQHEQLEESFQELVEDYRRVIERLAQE
The description is as above.

B1: Interferon regulatory factor 1 (IRF1) (other, UniProt P10914 1-325, looked up)
chain: MPITRMRMRPWLEMQINSNQIPGLIWINKEEMIFQIPWKHAAKHGWDINKDACLFRSWAIHTGRYKAGEKEPDPKTWKANFRCAMNSLPDIEEVKDQSRNKGSSAVRVYRMLPPLTKNQRKERKSKSSRDAKSKAKRKSCGDSSPDTFSDGLSSSTLPDDHSSYTVPGYMQDLEVEQALTPALSPCAVSSTLPDWHIPVEVVPDSTSDLYNFQVSPMPSTSEATTDEDEEGKLPEDIMKLLEQSEWQPTNVDGKGYLLNEPGVQPTSVYGDFSCKEEPEIDSPGGDIGLSLQRVFTDLKNMDATWLDSLLTPVRLPSIQAIPCAP
notes: Endogenous protein from MonoMac6 lysates, detected with anti-IRF1 on the blot after co-immunoprecipitation
Turning to B1, the binding result in assay [1] and in assay [2] was “no binding” throughout.

The values above are taken from patent publication US20160298120A1 (CHILDREN S HOSPITAL OF PHILADELPHIA, published 2016).
